Experimental data reported in the supplement of paper PMC12042874.
± gives the uncertainty stated by the source.

Experiment: amyloid nucleation score (Sup35N fusion, yeast selection) (log enrichment); library NNK2; higher = more nucleation; inactive = no reads after selection
In short: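 Using DiMSum, nucleation scores were taken as the log enrichment of output over input reads, centred on the mode score of non-aggregating sequences. The input and output reads came from Illumina sequencing of plasmid inserts, with sequences under 100 input reads excluded. The yeast were psi-negative, expressed Sup35N fused to peptides of 20 random codons, were induced with 100 μM copper sulfate for 24 hours, and were grown 7 days at 30°C on medium lacking adenine and uracil.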

Substance	amyloid nucleation score
RCFNLWSNSVLFNCSVCSAE	7.414 ± 0.065
AFSSCSMFATNRLPTSYKSD	3.48 ± 0.084
PREFGRLL	-0.757 ± 0.35
RRRPRGLEGFAERGLGDWTY	1.36 ± 0.44
LLSKFF	inactive
WWKYLVICLWARMALKGFSL	inactive
RMSVWNNECTWTSSVSVHPK	2.37 ± 0.1
LIAKMAIKFKGDAQF	4.05 ± 0.09
FDTGSRYFFNELRGGNCHCW	1.26 ± 0.21
WRRTTYYGRDRGQVLGNNAG	-0.009 ± 0.36
VYMCFSPVVNIMTVISFLAR	5.23 ± 0.093
RTDVFWNRMQRDSLFKPNAT	0.192 ± 0.44
FDILDCDNLELGLYIFILDL	-1.14 ± 1
FRNFELSRTFVVYNPVLQCY	-0.473 ± 0.39
CSAATSGYYMSQDRLSDTTT	-0.184 ± 1.1
HLTSKVTGASIKVTKVNYLD	-1.25 ± 0.64
LSVAKPSSACRVKLWSPSVG	0.492 ± 0.56
IAITDFVLVSVLHSKWCIF	-0.246 ± 0.5
IVHYGETNG	0.494 ± 0.38
MVWSSRDS	-0.548 ± 0.54
QFCSDCV	-0.9 ± 0.76
LSIQLTEHA	2.13 ± 0.079
INLRMCGFYTSFDLNWRRKW	4.981 ± 0.049
LLLASAMWYGKLIRMRLLG	0.659 ± 0.48
LYWNVAGLGPQYKSLCLGFR	-0.753 ± 0.56

Substance	amyloid nucleation score
VLILNQE	inactive
TMSQYLGNRCTTNGYSFGVS	-0.272 ± 1.1
PFLVLSWDRCN	-0.288 ± 1.1
NWPMGGHVYKHRVSHSG	0.095 ± 0.53
SQISYEWDATIHQWLCKWFW	8.355 ± 0.031
VVLTAVHFQCLLTLTVPIEV	-0.158 ± 0.48
KVINFGCTTFDYGYATYFGQ	6.66 ± 0.055
FLQLLDNFALLDLVG	-0.12 ± 0.79
SVMIWIIASNIDILSVVFRL	-0.573 ± 1.1
NQTGSRYRVFGNFHVTACFV	0.838 ± 0.18
IRFVESSQMKVLPRGGVGLN	inactive
VHIYQTPPLKCIWSMDKTPA	-0.442 ± 1
FFCLIVLVANVTCCGRDEGP	5.32 ± 0.055
DPGSRDMIG	0.043 ± 1
YMASWVSSAGSFV	1.05 ± 0.29
PGYPVTFLRRDAYAVREFEF	-0.1 ± 1
TMLTFG	-0.913 ± 0.76
SHLTNDVY	0.614 ± 0.43
VVQFSNGDLLILTGCPNTSK	0.449 ± 0.8
GEFSLF	0.2 ± 0.37
TVFLTGRFCWVFPRSCYLSY	-0.758 ± 0.33
SGISKTGLYASYWGYLSGGK	-0.453 ± 0.27
CCNQEVLD	0.575 ± 0.66
KSASRYNRQWNRHSYWMANR	-0.064 ± 0.34
WCKLDWLIWGIEQRP	0.063 ± 1.1

Substance	amyloid nucleation score
AWTAETFKVLCVVMSY	0.382 ± 0.24
RGSNVGMRDLAYRPHSGQMW	1.68 ± 0.56
SYDDVVILDFYDGIL	inactive
IPFRFDMSRSFISSTFTVRI	-0.533 ± 0.63
YLLFHYGFLN	-1.1 ± 0.63
CALSVVTIHFCHTRAPGTPL	3.65 ± 0.082
TYICT	-0.59 ± 0.24
LCRYARCLIVSFVRIFGCCL	-0.47 ± 1.1
SGPVERFLILLIRCMNRLYV	-1.19 ± 0.44
ACCRTNFATLVLKEKMNLD	0.326 ± 0.3
EMLFWVVGTMDVDWMPG	0.508 ± 0.57
KVLFTGFFANVGFSSSVRAN	-0.567 ± 1.1
GAVNFYHT	4.06 ± 0.044
DTLLSMAKRCLDSVFLGFPR	-0.134 ± 0.55
VSLRYRKRQWCYRVKWSITD	-1.36 ± 0.48
VDDWSADIMKGDRVLYS	inactive
CCCWRECDNKRSRTLHCEAW	0.557 ± 0.66
AYWVQGCLLQMRMT	0.891 ± 0.22
LDICCIRGMNRHFRFYNVDV	-0.402 ± 0.61
GCSVCDMTF	0.073 ± 0.53
HCCHRFYMDSEIACTCFTTM	-0.523 ± 0.56
FTTFRR	-0.854 ± 0.55
IRKCRSHSFSRFRRHFS	0.285 ± 1
FSMPLLALAFLL	inactive
SLLVDALR	0.513 ± 0.39

Substance	amyloid nucleation score
NILAMKLFVNKFHVIFDEFL	0.097 ± 1.1
SNYGTGDGCCVGV	1.81 ± 0.099
YNVQFTSEIVSE	0.001 ± 0.35
DRFQMGCLWGNNEYLLSAMA	-1.97 ± 0.75
CVGGGRQKCEHNVMITLMTF	4.22 ± 0.056
ASEGVGCFV	inactive
VVAKAGRSKFSGCSRATAGG	0.609 ± 0.41
REVYWLMCTA	0.747 ± 0.47
LSGLVFIN	-0.053 ± 1
VLPLFNGIARHPCWNLCMPM	-1.27 ± 0.62
FNMVNTILMNGPSCWLQSVP	0.21 ± 0.63
YVIFHSEEMN	inactive
HFGDIDKYRAADAGVVERNP	4.25 ± 0.083
GQLSVVKCRSY	1.14 ± 0.29
SIFKSIWDYLIYRSLVSHPH	-0.305 ± 1
NRFMN	-0.3 ± 0.46
IKCLYV	-0.127 ± 1
VANEDDRYYTYGADWERLLL	0.844 ± 0.56
RTRDPRIFLSVCTGYTRRYY	-1.28 ± 0.76
FCISFRTRSDPRSHSSGAIE	0.498 ± 0.54
SDMYM	-0.324 ± 1.1
WPFPKSRNRS	-0.076 ± 0.79
LVIRAKYYNPRTWGKFLHPV	-0.381 ± 0.28
AGSSSVNQITCLH	-0.22 ± 1
FNYDSLVSTRAYPFWTVTVF	1.52 ± 0.43

Substance	amyloid nucleation score
LIYPANDANNSTR	-0.616 ± 0.64
DCLGVSFNDFQFLLVSAITR	inactive
FWVVIVAHSVSWLLLTWQLE	0.553 ± 0.65
LMKNEFSRYHTSCVVRGNSL	0.334 ± 0.28
VSRKV	0.476 ± 0.23
VHRWSDTYTTTYM	-0.535 ± 0.33
HLSFGFRRNRR	0.967 ± 0.2
SNGKYG	1.32 ± 0.26
SRSWTLKFRLGGNVKQYCTW	5.72 ± 0.091
EFRWGFRGVSYLKCTC	1.2 ± 0.15
VNKSSERNESIGRFRTCYRR	0.345 ± 0.8
CLMWVISNSYNECHLGEVGQ	6.56 ± 0.087
NNTNIECSWWIYVWSRHNNR	5.99 ± 0.061
FNALTVDQTVHSYGVYADLP	0.191 ± 0.21
IHWGLIIGSCRF	1.56 ± 0.27
WFMFCNLGLGTPIGMITLRS	-1.16 ± 0.56
FSLYN	-1.64 ± 0.75
RCFIHRGGLLVVLV	-0.98 ± 0.54
CNPASYMSALVGGSVSRDSR	-0.076 ± 0.46
THNLAEGQGKDCVQSLDRMG	0.22 ± 0.38
MTIVVSDCTSVSDVFIGLGN	2.29 ± 0.076
RWMILSFSLAWVSMSFENNM	0.784 ± 0.18
NLCRQVACTLLSLPSDTPRF	8.842 ± 0.03
WSKQKVAT	0.814 ± 0.21
PVFRFTSGPLDKNCVYRVN	0.564 ± 0.57

Substance	amyloid nucleation score
GVSSNGSLCWCVFMKVPAVC	2.98 ± 0.078
CDRLELRN	0.065 ± 0.43
GSYVTAISAHFVGKLCASRI	0.343 ± 0.8
VRFNGLVR	inactive
FISSVIIGYSDPGVEGILLV	-0.922 ± 0.78
SGLFFTHTFRKLVYRLRSTK	-1.08 ± 1.1
NASIQR	0.564 ± 0.36
WMLWANIDPGDAPYREASAG	4.06 ± 0.05
NSYSGAVLT	-0.464 ± 1.1
RGWCFWASPGRR	0.2 ± 0.26
LKWVYLSSIALTFAPPRRLD	3.63 ± 0.069
ATYPVSATGSGELWVDRGQE	0.603 ± 0.38
SVFGTLFDYGRRSTTFNGLK	inactive
CDLLVPQRYSAGLPLPVVKE	1.8 ± 0.24
TPSRFWPMLFSVNLWLRGWL	0.017 ± 0.62
SMRVVCYWVLRW	3.16 ± 0.075
NKSVQARDPTV	inactive
QSRSMNRHNWHTFMLWAWER	-0.695 ± 0.61
RITFV	-0.64 ± 0.76
PSHSRMRIMNSTYSSFLLKV	0.214 ± 0.18
VVSSSTSFTAGTRVM	inactive
EKTFRFADYLMCPASSRSSV	-0.082 ± 0.4
KYGNFVFTFLLINPF	inactive
CFMYT	-0.415 ± 0.21
DLKVWAWKLILFGIMDLGGH	3.89 ± 0.048

Substance	amyloid nucleation score
PYWYYVFCS	-0.689 ± 0.49
REDNPRADTCMAYGV	1.14 ± 0.35
TRSYQLLLVSLVAGNFVE	1.5 ± 0.27
VGSSEAFCYGLTDFKRENLA	inactive
NNLTKWLNHWRYFRFSSALE	-0.178 ± 0.5
VTIYRGVRFGTFLPCRVRYG	1.48 ± 0.26
MFGTMWAWFSVYACEVAWN	0.045 ± 0.62
IFSISLLMAQYIGVWFFRRV	inactive
QIPVELNNVLNLYLVLCRIE	-0.459 ± 1.1
ASTFYMVGSIG	2.8 ± 0.083
KICSYPR	2.46 ± 0.11
WSMSVLVSPHVMFKNAMEVL	0.22 ± 0.28
KMSVLG	-0.936 ± 0.64
ATDVCKKLWFALLVSVLVSS	0.642 ± 0.48
SYLLSRYLRPKGYADNIVYA	inactive
ENATFLATCI	-0.217 ± 0.79
KNLDQYCCCFNALTLSVSRS	7.473 ± 0.051
RTGRRSAFCTSVRRLNPDCL	1.17 ± 0.41
YLNSYNSC	-1.31 ± 1
STVICSVYFDVVASFDIVYI	1.39 ± 0.24
TCFHR	0.285 ± 0.55
IRPLFTVLGRKTRQIFTM	-0.283 ± 1
DWTTAFSTF	-0.012 ± 0.41
RCLPISTIVF	2.43 ± 0.16
FSSATDVCDGSRSIIRIAGA	-0.283 ± 1
